Consider one substance from patent US11161908.

This assay has as its target human BAFF-R-GFP fusion protein expressed on the surface of mouse fibroblast (L) cells, clone D2C (human) (UniProt Q96RJ3). Nature of the assay: flow cytometry, recombinant BAFF at 0.5 ug/10^6 D2C L cells, detected with anti-BAFF-PE, no antibody; unstained cells: 0.0217.

As for “recombinant BAFF ligand (from UniProt Q9Y275 134-285)”, the percent of cells in the BAFF-PE gate worked out at 59.6%.
